# Source: patent publication US20200223932A1
# How the values were obtained:
# [1] = target: recombinant human FcγRI (human) (UniProt P12314); test: ELISA, antibody coated on the plate, soluble FcγRI titrated (the axis is its concentration), anti-CD64 and HRP anti-mouse IgG, A450
# [2] = target: recombinant human CD40L (BioLegend Cat. #591706) (human) (UniProt P29965); test: ELISA on coated rh CD40L; IC50 clone/IC50 5c8 x100
# UniProt P29965, sequence (P29965 113-261 limits assumed): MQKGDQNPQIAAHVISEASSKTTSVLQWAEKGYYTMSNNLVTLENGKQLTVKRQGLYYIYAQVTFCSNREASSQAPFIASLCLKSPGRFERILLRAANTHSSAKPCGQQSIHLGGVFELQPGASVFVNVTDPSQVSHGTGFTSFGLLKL
# UniProt P12314, sequence (P12314 16-288 limits assumed): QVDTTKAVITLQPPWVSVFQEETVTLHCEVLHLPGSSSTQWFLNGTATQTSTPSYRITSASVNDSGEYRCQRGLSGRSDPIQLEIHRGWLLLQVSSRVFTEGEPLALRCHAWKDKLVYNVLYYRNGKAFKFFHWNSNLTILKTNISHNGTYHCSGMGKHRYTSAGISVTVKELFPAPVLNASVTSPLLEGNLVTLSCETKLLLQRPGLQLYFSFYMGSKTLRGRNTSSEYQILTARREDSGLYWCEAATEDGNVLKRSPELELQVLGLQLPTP
Substance,EC50 (read off the curve) [1] [µg/mL],Rel. Pot. [2] [%]
anti-CD40L antibody 5c8,0.2,
anti-CD40L antibody AT-1501,,95
